US20260216379A1 (GEORGIA STATE UNIVERSITY RESEARCH FOUNDATION, published 2026)

Assays:
PSMA [1] = target: T1, PSMA (UniProt Q04609 1-750, limits assumed); experiment: assay not given; presumably the ELISA on LNCaP cell lysate of FIG. 10
T1 construct: whole, on cells; also called PSMA in LNCaP cell lysate; PSMA on LNCaP cells

PSMA [2] = target: T1, PSMA; experiment: indirect ELISA on coated LNCaP cell lysate
From the text: Briefly, LNCaP cell lysates were coated in a 96-well plate and 5% BSA was used as blocking agent. […] The interaction between ProCA32 variants and PSMA in cell lysates was quantified by ELISA using HRP-conjugated goat-anti-rabbit secondary antibody and one step ELISA kit.

collagen type I = collagen type I (mouse, UniProt P11087 152-1207; Q01149 86-1125); experiment: cell-based or functional assay
Chain of collagen type I (P11087 152-1207, chain 1 of 2): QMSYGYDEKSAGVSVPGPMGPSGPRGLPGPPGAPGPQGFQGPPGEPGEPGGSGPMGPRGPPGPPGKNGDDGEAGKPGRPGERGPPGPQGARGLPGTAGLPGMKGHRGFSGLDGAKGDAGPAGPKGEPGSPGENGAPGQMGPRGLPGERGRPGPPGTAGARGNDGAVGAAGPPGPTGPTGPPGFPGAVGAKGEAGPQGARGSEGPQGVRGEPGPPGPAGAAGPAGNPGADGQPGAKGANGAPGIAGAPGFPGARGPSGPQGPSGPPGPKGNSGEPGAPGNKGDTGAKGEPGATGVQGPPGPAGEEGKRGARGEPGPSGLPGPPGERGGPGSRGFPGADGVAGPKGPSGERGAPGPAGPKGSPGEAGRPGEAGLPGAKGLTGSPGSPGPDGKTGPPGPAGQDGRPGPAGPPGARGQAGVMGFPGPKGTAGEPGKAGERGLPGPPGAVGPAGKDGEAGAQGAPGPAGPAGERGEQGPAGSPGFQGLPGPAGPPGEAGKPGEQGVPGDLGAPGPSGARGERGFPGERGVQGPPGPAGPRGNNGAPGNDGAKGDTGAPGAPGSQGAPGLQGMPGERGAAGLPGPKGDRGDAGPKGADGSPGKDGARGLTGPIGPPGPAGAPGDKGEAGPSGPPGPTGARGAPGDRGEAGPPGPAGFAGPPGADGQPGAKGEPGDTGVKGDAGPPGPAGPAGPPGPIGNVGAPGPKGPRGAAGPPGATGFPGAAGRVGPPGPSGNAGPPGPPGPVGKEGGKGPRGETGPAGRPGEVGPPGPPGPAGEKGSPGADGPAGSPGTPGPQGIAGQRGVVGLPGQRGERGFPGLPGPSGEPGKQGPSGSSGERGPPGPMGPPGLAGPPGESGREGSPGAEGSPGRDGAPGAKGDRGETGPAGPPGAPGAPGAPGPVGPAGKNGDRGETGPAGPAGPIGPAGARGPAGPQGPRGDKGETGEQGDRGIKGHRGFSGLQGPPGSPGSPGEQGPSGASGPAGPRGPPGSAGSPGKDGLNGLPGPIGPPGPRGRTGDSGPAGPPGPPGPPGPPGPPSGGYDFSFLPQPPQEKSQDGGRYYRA
Chain of collagen type I (Q01149 86-1125, chain 2 of 2): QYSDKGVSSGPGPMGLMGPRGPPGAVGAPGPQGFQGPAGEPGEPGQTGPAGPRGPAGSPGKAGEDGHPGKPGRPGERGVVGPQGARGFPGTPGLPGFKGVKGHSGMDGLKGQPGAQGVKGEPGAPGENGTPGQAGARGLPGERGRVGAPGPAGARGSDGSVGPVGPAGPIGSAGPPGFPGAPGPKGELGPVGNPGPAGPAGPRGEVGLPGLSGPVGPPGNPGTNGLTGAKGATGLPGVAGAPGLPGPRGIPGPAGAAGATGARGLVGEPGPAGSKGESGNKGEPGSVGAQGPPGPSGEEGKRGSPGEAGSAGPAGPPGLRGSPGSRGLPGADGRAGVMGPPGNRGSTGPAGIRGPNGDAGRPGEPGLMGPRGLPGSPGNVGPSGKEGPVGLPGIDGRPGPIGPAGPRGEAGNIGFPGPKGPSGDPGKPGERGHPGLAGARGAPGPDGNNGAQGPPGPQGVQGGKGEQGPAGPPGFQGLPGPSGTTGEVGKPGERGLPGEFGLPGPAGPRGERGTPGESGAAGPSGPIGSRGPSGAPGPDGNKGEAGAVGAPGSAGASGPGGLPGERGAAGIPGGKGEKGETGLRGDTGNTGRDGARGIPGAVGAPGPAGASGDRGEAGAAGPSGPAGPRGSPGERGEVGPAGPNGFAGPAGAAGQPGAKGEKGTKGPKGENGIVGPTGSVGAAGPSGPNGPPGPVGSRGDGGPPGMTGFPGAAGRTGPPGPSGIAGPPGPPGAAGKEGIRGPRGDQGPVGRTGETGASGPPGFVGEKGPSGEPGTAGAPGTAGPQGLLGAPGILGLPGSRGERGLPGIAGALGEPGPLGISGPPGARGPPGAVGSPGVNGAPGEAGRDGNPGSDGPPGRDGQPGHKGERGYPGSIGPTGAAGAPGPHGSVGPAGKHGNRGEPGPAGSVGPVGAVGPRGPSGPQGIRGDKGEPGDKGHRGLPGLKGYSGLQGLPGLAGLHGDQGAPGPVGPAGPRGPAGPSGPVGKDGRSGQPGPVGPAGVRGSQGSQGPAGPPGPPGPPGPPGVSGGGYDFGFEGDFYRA

CXCR4 = target: T2, CXCR4 (UniProt P61073 1-352, limits assumed); experiment: binding to CXCR4 positive cells (FIGS. 47A-47B)
T2 construct: whole, on cells; also called chemokine receptor type 4; CXCR4 on Mel290 cells
T2 sequence (P61073 whole entry): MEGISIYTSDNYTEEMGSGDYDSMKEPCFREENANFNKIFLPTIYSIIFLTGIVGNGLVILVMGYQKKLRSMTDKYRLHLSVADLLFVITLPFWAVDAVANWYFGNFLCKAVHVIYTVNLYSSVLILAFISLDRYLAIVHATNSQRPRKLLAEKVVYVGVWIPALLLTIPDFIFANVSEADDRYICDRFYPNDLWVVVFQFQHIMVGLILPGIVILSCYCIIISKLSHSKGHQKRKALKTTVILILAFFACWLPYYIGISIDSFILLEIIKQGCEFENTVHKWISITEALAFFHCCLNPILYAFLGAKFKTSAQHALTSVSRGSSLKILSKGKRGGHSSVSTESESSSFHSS

T1 sequence (Q04609 whole entry): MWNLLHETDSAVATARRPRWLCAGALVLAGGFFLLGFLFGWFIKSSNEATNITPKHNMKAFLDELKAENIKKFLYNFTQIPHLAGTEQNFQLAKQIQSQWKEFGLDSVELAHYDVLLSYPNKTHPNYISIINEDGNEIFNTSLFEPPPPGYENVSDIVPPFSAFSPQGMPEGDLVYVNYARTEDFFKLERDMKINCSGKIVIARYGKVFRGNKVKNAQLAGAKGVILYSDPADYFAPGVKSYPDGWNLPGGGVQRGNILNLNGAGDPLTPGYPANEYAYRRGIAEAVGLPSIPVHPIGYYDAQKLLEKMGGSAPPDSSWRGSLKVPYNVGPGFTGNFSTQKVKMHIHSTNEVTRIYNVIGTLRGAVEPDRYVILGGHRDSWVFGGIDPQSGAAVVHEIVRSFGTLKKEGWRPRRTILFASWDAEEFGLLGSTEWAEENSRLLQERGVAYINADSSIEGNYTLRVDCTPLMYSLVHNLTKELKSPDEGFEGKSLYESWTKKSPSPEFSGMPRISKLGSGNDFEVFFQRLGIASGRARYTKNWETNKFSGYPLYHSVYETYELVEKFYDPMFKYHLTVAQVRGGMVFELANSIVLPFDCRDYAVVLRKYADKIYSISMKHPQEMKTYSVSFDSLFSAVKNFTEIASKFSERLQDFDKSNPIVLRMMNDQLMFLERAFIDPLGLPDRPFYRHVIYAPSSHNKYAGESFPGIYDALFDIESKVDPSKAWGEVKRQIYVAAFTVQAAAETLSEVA

B1: ProCA32.564.PSMA (designed binder, not shown: small tags and cut ends)
chain: MSMTDLLNAEDIKKAVGAFSATDSFDHKKFFQMVGLKKKSADDVKKVFHMLDKDKDGFIEEDELGFILKGFSPDARDLSAKETKMLMAAGDKDGDGKIGVEEWSTLVAESLSFFSCWLRRSFSLT
notes: Fluorescein-labelled in the anisotropy assays, unlabelled in the ELISA
EC50 (PSMA [1]): 520 nM

B2: ProCA32 (other)
chain: SMTDLLNAEDIKKAVGAFSATDSFDHKKFFQMVGLKKKSADDVKKVFHMLDKDKDGFIEEDELGFILKGFSPDARDLSAKETKMLMAAGDKDGDGKIGVEEWSTLVAES
notes: Control without a targeting moiety; also called non-targeted ProCA32; ProCA32 itself without targeting moiety
binding result (PSMA [2]): no binding

B3: rat ProCA32.collagen (designed binder)
chain: MSMTDLLSAEDIKKAIGAFTAADSFDHKKFFQMVGLKKKSADDVKKVFHILDKDKDGFIEEDELGSILKGFSSDARDLSAKETKTLMAAGDKDGDGKIGVEEWSTLVAESGGGKKWHCYTYFPHHYCVYG
modifications: Used as a contrast agent loaded with Gd3+; the metal ions are not carried by the letters.
Gd^3+ injection dosage per gram of tissue in fibrotic liver, against rProCA32 (collagen type I): ~2 fold

B4: ProCA32.V1.CXCR4 (designed binder)
chain: MSMTDLLNAEDIKKAVGAFSATDSFDHKKFFQMVGLKKKSADDVKKVFHMLDKDKDGFIEEDELGFILKGFSPDARDLSAKETKMLMAAGDKDGDGKIGVEEWSTLVAESLGASWHRPDKCCLGYQKRPLP
notes: also called ProCA32.CXCR4
Kd (CXCR4): 1840 nM
